In IntAct's records for PubMed 19942855:

What was measured:
[1] = target: spp_human HM13 (UniProt Q8TCT9)
[2] = target: spp_human HM13 (UniProt Q8TCT9); remark: listed apart in the source

spp_human HM13, sequence (Q8TCT9 whole entry): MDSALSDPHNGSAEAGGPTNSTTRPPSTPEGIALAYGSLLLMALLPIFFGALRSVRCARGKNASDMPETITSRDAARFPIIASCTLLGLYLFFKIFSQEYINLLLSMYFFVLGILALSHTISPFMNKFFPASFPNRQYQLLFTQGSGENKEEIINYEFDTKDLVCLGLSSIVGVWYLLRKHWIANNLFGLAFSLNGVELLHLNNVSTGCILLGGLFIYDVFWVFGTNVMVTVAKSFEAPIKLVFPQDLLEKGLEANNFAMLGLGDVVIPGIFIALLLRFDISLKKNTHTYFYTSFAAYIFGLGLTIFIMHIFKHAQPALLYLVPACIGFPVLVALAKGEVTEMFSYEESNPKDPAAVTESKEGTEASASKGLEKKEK
Protein disulfide-isomerase (Homo sapiens), P07237 C397S, sequence (P07237 whole entry C397S): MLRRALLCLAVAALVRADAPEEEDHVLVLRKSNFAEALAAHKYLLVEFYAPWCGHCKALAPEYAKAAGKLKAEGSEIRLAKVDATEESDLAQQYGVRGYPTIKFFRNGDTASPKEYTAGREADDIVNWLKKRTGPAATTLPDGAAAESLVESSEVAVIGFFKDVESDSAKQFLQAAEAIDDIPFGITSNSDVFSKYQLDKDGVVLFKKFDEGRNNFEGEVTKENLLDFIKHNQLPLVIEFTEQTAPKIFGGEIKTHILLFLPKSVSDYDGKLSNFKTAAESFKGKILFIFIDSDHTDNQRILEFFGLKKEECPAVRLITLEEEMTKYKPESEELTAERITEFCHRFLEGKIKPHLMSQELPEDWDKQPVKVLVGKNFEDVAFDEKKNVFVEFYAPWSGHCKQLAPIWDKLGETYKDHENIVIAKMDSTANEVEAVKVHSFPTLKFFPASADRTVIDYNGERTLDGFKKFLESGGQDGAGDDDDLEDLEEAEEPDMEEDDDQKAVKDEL
Protein disulfide-isomerase (Homo sapiens), P07237 C53S, sequence (P07237 whole entry C53S): as the sequence (P07237 whole entry C397S) above, with C53S, S397C counted along it
Protein disulfide-isomerase (Homo sapiens), P07237 F275W, sequence (P07237 whole entry F275W): as the sequence (P07237 whole entry C397S) above, with F275W, S397C counted along it
Protein disulfide-isomerase (Homo sapiens), P07237 I289A, sequence (P07237 whole entry I289A): as the sequence (P07237 whole entry C397S) above, with I289A, S397C counted along it
Protein disulfide-isomerase (Homo sapiens), P07237 C400S, sequence (P07237 whole entry C400S): as the sequence (P07237 whole entry C397S) above, with S397C, C400S counted along it
Protein disulfide-isomerase (Homo sapiens), P07237 C56S, sequence (P07237 whole entry C56S): as the sequence (P07237 whole entry C397S) above, with C56S, S397C counted along it

effect of a mutation on the interaction [1] | effect of a mutation on the interaction [2] | Substance
decreasing interaction |  | Protein disulfide-isomerase (Homo sapiens), P07237 C56S
decreasing interaction |  | Protein disulfide-isomerase (Homo sapiens), P07237 C400S
 | increasing interaction | Protein disulfide-isomerase (Homo sapiens), P07237 I289A

More lines, now with the values behind:

Substance | effect of a mutation on the interaction [1] | effect of a mutation on the interaction [2]
Protein disulfide-isomerase (Homo sapiens), P07237 C53S | decreasing interaction | 
Protein disulfide-isomerase (Homo sapiens), P07237 C397S | decreasing interaction | 
Protein disulfide-isomerase (Homo sapiens), P07237 F275W |  | increasing interaction
